Source: the RNAGym collection of RNA variant scans (doi:10.1073/pnas.2313332121)
Variants at the floor of the assay were thinned out.

B1: TPR 5TU (parent)
chain: GGAUCUUCUCGAUCUAACAAAAAAGACAAAUCUGCCACAAAGCUUGAGAGCAUCUUCGGAUGCAGAGGCGGCAGCCUUCGGUGGCGCGAUAGCGCCAACGUUCUCAACUAUGACACGCAAAACGCGUGCUCCGUUGAAUGGAGUUUAUCAUG

Variants of: B1
Assay: polymerase ribozyme fitness, log enrichment relative to wild type (log ratio); higher = more active; in vitro selection for triplet polymerase activity
Procedure, shortened: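 After PCR construction and transcription, each subunit's mutant library from a heterodimeric triplet polymerase ribozyme was annealed with a biotinylated primer, the partner subunit and triplets. Incubation was frozen, at −7 °C, and extended constructs were gel-excised, bound to streptavidin beads and amplified by RT-PCR, in one selection round done in triplicate. Fitness is the logarithm of a genotype's enrichment divided by that of the wild type, from inverse-variance-weighted replicate averages of Illumina-sequenced inputs and outputs. The base of the logarithm is 2, and genotypes needed ≥10 input reads and ≥1 read per output.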

Row | Variant | polymerase ribozyme fitness (log ratio)
1 | A17U C85A | -1.17
2 | U55G G92A | -3.13
3 | A29U C35G G71C | ≤ -4.2
4 | C18G A21C A49C C93A | ≤ -4.2
5 | U33C A122G U127G | ≤ -4.2
6 | A19C G88A C95A C99U | ≤ -4.2
7 | U56C C79U | -1.8
8 | C93U G128U | -3.6
9 | C38G G92C C95U | -1.62
10 | C35U C87G | -3.84
11 | A24U G92U | 0.213
12 | C5G C35U G59C C87U G100U C125G G133A U145C | ≤ -4.2
13 | A19C G92A | -2.38
14 | C54A U56G U78G U82G C114A U144C | ≤ -4.2
15 | G70U G92U A98G A147C | ≤ -4.2
16 | U6C G70A C76G C87A G88A C116A | ≤ -4.2
17 | U33A C75G U78A U101A G152U | -4.02
18 | U127C U139C U151G | ≤ -4.2
19 | C87G U90C | -4.07
20 | U61A G92C | -3.57
21 | C14U A21U G50C U56A A66C A91U G143C | ≤ -4.2

Row | Variant | polymerase ribozyme fitness (log ratio)
22 | A3U C18U G50A G68A C76A G92C C93U | ≤ -4.2
23 | C85U U127G | -3.46
24 | A52G C69U A106C C125U | -4.12
25 | A29U C95A | -3.68
26 | G34A C85A A91C C103G | ≤ -4.2
27 | A21U C96G G143U | -3.69
28 | C27U G48A C69A C96A A121G | ≤ -4.2
29 | U4G U56G U144A | -1.19
30 | C93U C118A U144G | -1.06
31 | A12U A47C A52C U56G A64C G86A A89G C99U | ≤ -4.2
32 | U15C A17G C35G U56A G117C | -4.19
33 | C54U G58A A64C G71A | ≤ -4.2
34 | A37C U45A C79U A97U U144A | ≤ -4.2
35 | A21C C38U G46C U53G G88U A122U G126A U135C C149G | ≤ -4.2
36 | C5G A30C G81U A138C U144C | ≤ -4.2
37 | U55A U56G G80A | -1.37
38 | A20C A47U U101A A122U | -0.358
39 | A37G A40U A115G A142U | ≤ -4.2
40 | A19U C54G C79A U82C G84A A89C G92C U144C | ≤ -4.2
41 | U82G G86U U102G U130G A147U | ≤ -4.2
42 | A12G A37G C54A C57U G71A A115G | ≤ -4.2

Row | Variant | polymerase ribozyme fitness (log ratio)
43 | C10A A12G U53A U55A G92C G94C C105U | ≤ -4.2
44 | A106G A113U U135G | ≤ -4.2
45 | C76U A119C C123U | 0.258
46 | A3U A17U U55G G84A C96A G133U G152C | ≤ -4.2
47 | C85U U127C A137U | ≤ -4.2
48 | A30C U31G U82A G92C C103A U134G | ≤ -4.2
49 | A12C A24U A37G A52C C75U C93U | ≤ -4.2
50 | C85U G92A G143U | -4.16
51 | U53G C87A A120U A142U U146A | ≤ -4.2
52 | C5U A16C G81A U82A G126C | -0.899
53 | C5U A23G C32A C57G G59A C87G C95A U134C | ≤ -4.2
54 | G25C A26C | -2.94
55 | A16U C54U | -1.53
56 | C87U A89G C103U A115C C123U G143U | ≤ -4.2
57 | G59A C75U C85U U144A | -1.61
58 | C10G A28C C51U C87U G88A A91C G117C G124U U130G | ≤ -4.2
59 | C10U A28U G94A U127G | -4.04
60 | C8G G70C C93U C99U U148G | ≤ -4.2
61 | G48U U56A C87G U90C | -4.07
62 | A17U G46U G84A C105U | -0.266
63 | A17U A21C U44A A49C C72A U82A U134A | ≤ -4.2

Row | Variant | polymerase ribozyme fitness (log ratio)
64 | C87U C131A G140A | -3.61
65 | G58U C105U U134A A137U U144A | ≤ -4.2
66 | C57A C93A | -2.04
67 | C51U G62C G70A A115U C116A | ≤ -4.2
68 | C76U A137G | -0.882
69 | A40U U109A | -1.86
70 | U53A C96G | -2.55
71 | G65C G74C G88A C93G U146A | ≤ -4.2
72 | U55A C87A C108G | ≤ -4.2
73 | U45G G94A A137G | -2.23
74 | C69G G94A | -1.15
75 | A21U C63U G84A | -0.545
76 | G42C A60G A113U G140U | -3.85
77 | C14G G94A A106C G136A | -3.64
78 | C32A U77G G88A G126C G143U | ≤ -4.2
79 | C14U A23U U31A A47C G92C C96G C131A | ≤ -4.2
80 | C18U C87U G94C C123A G141A | ≤ -4.2
81 | C5A U13C C38U A121G U127C | -4.07
82 | G83A C108U | -3.01
83 | U31G C99U U145G | -0.861
84 | A17G C72A U77G C79U U109G | ≤ -4.2
